Numbering of substitutions follows the chain as printed. In names and notes the source's numbering stands.
B1: WT: TagGFP-tagged WT ATAD2 expressed in MCF7 cells (protein)
chain: MVVLRSSLELHNHSAASATGSLDLSSDFLSLEHIGRRRLRSAGAAQKKPAATTAKAGDGSSVKEVETYHRTRALRSLRKDAQNSSDSSFEKNVEITEQLANGRHFTRQLARQQADKKKEEHREDKVIPVTRSLRARNIVQSTEHLHEDNGDVEVRRSCRIRSRYSGVNQSMLFDKLITNTAEAVLQKMDDMKKMRRQRMRELEDLGVFNETEESNLNMYTRGKQKDIQRTDEETTDNQEGSVESSEEGEDQEHEDDGEDEDDEDDDDDDDDDDDDDDEDDEDEEDGEEENQKRYYLRQRKATVYYQAPLEKPRHQRKPNIFYSGPASPARPRYRLSSAGPRSPYCKRMNRRRHAIHSSDSTSSSSSEDEQHFERRRKRSRNRAINRCLPLNFRKDELKGIYKDRMKIGASLADVDPMQLDSSVRFDSVGGLSNHIAALKEMVVFPLLYPEVFEKFKIQPPRGCLFYGPPGTGKTLVARALANECSQGDKRVAFFMRKGADCLSKWVGESERQLRLLFDQAYQMRPSIIFFDEIDGLAPVRSSRQDQIHSSIVSTLLALMDGLDSRGEIVVIGATNRLDSIDPALRRPGRFDREFLFSLPDKEARKEILKIHTRDWNPKPLDTFLEELAENCVGYCGADIKSICAEAALCALRRRYPQIYTTSEKLQLDLSSINISAKDFEVAMQKMIPASQRAVTSPGQALSTVVKPLLQNTVDKILEALQRVFPHAEFRTNKTLDSDISCPLLESDLAYSDDDVPSVYENGLSQKSSHKAKDNFNFLHLNRNACYQPMSFRPRILIVGEPGFGQGSHLAPAVIHALEKFTVYTLDIPVLFGVSTTSPEETCAQVIREAKRTAPSIVYVPHIHVWWEIVGPTLKATFTTLLQNIPSFAPVLLLATSDKPHSALPEEVQELFIRDYGEIFNVQLPDKEERTKFFEDLILKQAAKPPISKKKAVLQALEVLPVAPPPEPRSLTAEEVKRLEEQEEDTFRELRIFLRNVTHRLAIDKRFRVFTKPVDPDEVPDYVTVIKQPMDLSSVISKIDLHKYLTVKDYLRDIDLICSNALEYNPDRDPGDRLIRHRACALRDTAYAIIKEELDEDFEQLCEEIQESRKKRGCSSSKYAPSYYHVMPKQNSTLVGDKRSDPEQNEKLKTPSTPVACSTPAQLKRKIRKKSNWYLGTIKKRRKISQAKDDSQNAIDHKIESDTEETQDTSVDHNETGNTGESSVEENEKQQNASESKLELRNNSNTCNIENELEDSRKTTACTELRDKIACNGDASSSQIIHISDENEGKEMCVLRMTRARRSQVEQQQLITVEKALAILSQPTPSLVVDHERLKNLLKTVVKKSQNYNIFQLENLYAVISQCIYRHRKDHDKTSLIQKMEQEVENFSCSR
modifications: left off: tagGFP, end not stated, kept
notes: TagGFP-tagged WT ATAD2 expressed in MCF7 cells
B2: ATPase mut: TagGFP-tagged ATPase mutant ATAD2 (K473T, E532Q) expressed in MCF7 cells (protein)
chain: B1 chain with K473T, E532Q
modifications: left off: tagGFP, end not stated, kept
notes: TagGFP-tagged ATPase mutant ATAD2 (K473T, E532Q) expressed in MCF7 cells
B3: BD mut: TagGFP-tagged BD mutant ATAD2 (V1013A, Y1021A, Y1063A, I1074A) expressed in MCF7 cells (protein, UniProt Q6PL18 1-1390, looked up, variant V1013A Y1021A Y1063A I1074A)
ATPase family AAA …: B1 chain with V1013A, Y1021A, Y1063A, I1074A
modifications: TagGFP tag
notes: TagGFP-tagged BD mutant ATAD2 (V1013A, Y1021A, Y1063A, I1074A) expressed in MCF7 cells

System: MCF7 cells
Experiment: Fluorescence recovery after photobleaching (FRAP)
Format: cell-based
Conditions: TagGFP-tagged ATAD2 in MCF7, FRAP, 20 images; mean ± SEM
Description: Immunofluorescence of cells were saved for whole cell extract and the rest was subjected for subsequent fractionation. Whole cell extract
Cells were grown on Matrigel-coated coverslips and was prepared by incubating cells in ice-cold RIPA buffer fixed in 4 % formaldehyde in PBS for 15 min at RT or in (25 mM Tris·HCl pH 7.6, 150 mM NaCl, 1 % NP-40, 1 100 % methanol for 7 min at -20 °C. After removing the % sodium deoxycholate, 0.1 % SDS) supplemented with residual FA or methanol by washing in PBS cells were protease inhibitor cocktail (Roche) for 10 min on ice and permeabilized in blocking solution (10 % goat serum sonicated at medium power, 0.5 intervals in BIORUPTOR and 0.3 % Triton X-100 in PBS) for 10 min at RT and for 3 min at 4 °C. Soluble lysate was recovered by incubated with primary antibodies in blocking solution. removing insoluble fractions after centrifugation at 20000 Following the removal of unbound antibodies by washing x g for 10 min 5 to 20 μg of lysates were used for SDS gel in PBS cells were incubated with secondary antibodies electrophoresis and Western blot. conjugated with Alexa Fluor 488, 555 or 647 (Invitrogen), washed and mounted on slides in presence of DAPI for Fluorescence recovery after photobleaching visualization of nucleus. Images were acquired using an (FRAP) inverted Zeiss LSM700 confocal microscope using a 488 nm Diode-Pumped Solid State Laser with a 63X, 1.3 N.A. FRAP experiment was performed as previously oil-immersion objective. For EdU labelling cells were described with minor modifications. […]
and fixed in 2 % FA for 10 min at RT. […] The image series were imported in Fiji and 100 % MeOH for 10 min at – 20 °C and incubated in average fluorescence was in the bleached region (F(t)ROI), stain buffer with 5 % normal goat serum for 10 min at the total cell nucleus (F(t)total) and a background (F(t)BG) RT for blocking. Then indirect staining was performed were determined. The relative fluorescence intensity

| Molecule | half recovery time (recovery t1/2) [s] |
| --- | --- |
| B1 | 17.740 |
| B2 | 2.514 |
| B3 | 7.951 |

System: MCF7 cells
Experiment: EdU incorporation (DNA replication) by flow cytometry
Format: cell-based
Conditions: MCF7 overexpressing tagGFP-tagged ATAD2, gated by tagGFP; mean ± SEM, n = 3 independent experiments
Description: informed consent was obtained (Indivumed, Hamburg, by incubating cells with primary antibodies for 1 h at Germany; Asterand, Detroit USA; Provitro Berlin, RT followed by labelling with secondary antibodies Germany) of different indications. Immunohistochemistry conjugated with Alexa488 or Alexa647 for 30 min at was performed using EnVision System-HRP (DAB) from RT in dark. For analysis of TagGFP-ATAD2 expressing Dako (K4006 and K4010). Prior to immunostaining the cells GFP was stained by GFP antibody to enhance the slides were deparaffinized and rehydrated in xylene and fluorescence signal. DNA was stained by DAPI at 1 μg/ graded ethanol to distilled water. Antigen was retrieved by ml for 10 min at RT. For EdU (5-ethynyl-2'-deoxyuridine) incubating the tissue in boiling Target Retrieval Solution labelling cells were incubated in 10 μM EdU for 2h at 37 pH 6.0 (Dako S2031) for 40 min and letting them cool °C prior to fixation and staining was carried out according […]
Peroxidase-Block for 15 min at RT the slides were washed Fluor® 647 Flow Cytometry Assay Kit, ThermoFisher). twice in washing buffer (PBS with 0.05 % Tween 20) and Cells were analyzed by flow cytometry using a BD LSR incubated with primary antibodies in Antibody-Diluent II. All imaging and quantifications were performed using […]
(Dako S2022) for 90 min at RT. […]
Immunofluorescence of cells were saved for whole cell extract and the rest was subjected for subsequent fractionation. Whole cell extract […]
and fixed in 2 % FA for 10 min at RT. […] The image series were imported in Fiji and 100 % MeOH for 10 min at – 20 °C and incubated in average fluorescence was in the bleached region (F(t)ROI), […]

| Molecule | EdU incorporation (normalized to control) |
| --- | --- |
| B1 | 0.75 ± 0.03 |
| B2 | 0.38 ± 0.09 |
| B3 | 0.5 ± 0.10 |
